Measured values taken from publication PMC11876699, “Elongator is a microtubule polymerase selective for polyglutamylated tubulin” (The EMBO Journal, 2025).

B2: eGFP-Elp456 (Drosophila, wild type) (complex)
chain 1: MTSFRKRTVQKPIRGTRTSPHTAQVITSSGNPYLDVVIGGGLPMGSICLIEEDRFMTHAKVLAKYFLAEGVISKQEIFLGSLDDIPAEMLRRLPRPLTDQESMEQSEVQALGDAGAENGLRIAWRYNDLPLVNSEHATAKIGHHFNLMEQMDSMMLYNVKTTLWDDSPKHLDIVIDEEFSKSSSPTTPSLEQQPVEDAPPIPGTETAPQEKMPAQEEENSANNNNNNNNNSSSVTSSTKTGSQDSPLQVFHNPRYKGLLNDIQQLLRNESFVAGTKNNLCRVCLTSLGSPLWYDEHFGEDLIKFLTLLMASVRNCNSVCLITMPMHLIAKYDASLVPKIRQLVDYAIELESFAGSERETHPAFKEYSGLLHLHKMSAINTLAVHMPETPDLAFKLRRKKFIIEKFHLPPELQESSAKPDNCISGLLSNSNATASLDF
chain 2: MLSNLVVTKQKVVLVIDELNRERIAPKFIGSLLHEQGQGADTIKALPTGVSLKHVATFEALIDKYANNNTGSTTDSNSTGFNVILPTLADLLCYQTPAFIFGFLNRLRRSDNVRRVFLWASPQHLQDPHADYILAGCEYLAELVLRLESDKLLSLISRKPGGGVSNRRYSCEVSKTQFKVTPLDGGLPAGASPKQPSPEAEQTTEPASSTFKIELDEDEVLARNALTLPYERTSEPSEGNIIYTPDADDDFDEEDPDEDLCI
chain 3: MATSVLLACGLNEQKLPGFVHISEESNVDASFLISCVLGQRLRISNAGTLLVCLQHHYQHYFNAGMRLGYNTNIFQGKTLGVIDVLSDMAGEGLASKWLTNTEGQTLTDQLVEDIRAQVERNYASRNSYTVLIDNLSILFNLGASKLQVQQFCQDLAALGKEREKLTVITKLSNSDIYQLTDNNVAKLGQVRIQVLRLKSGVFREVDGKLLIERVLDEGNYACEETRKEVLYKVNDRNVKVFAPGEIGVKV
notes: Elp4, Drosophila melanogaster; Elp5, Drosophila melanogaster; ORF; Elp6, Drosophila melanogaster; it is put on Elp4 here only by the name eGFP-Elp456 (surmised); also called eGFP-Elp456 (WT); source: E. coli BL21 (DE3) Rosetta2, purified (Glutathione Sepharose, TEV elution, Superdex 200); not shown: GST, N-terminal, cleaved; copies: 2 + 2 + 2

Columns and labels:
[1] = molecular target: eGFP-Elp456 solo (Drosophila, three point mutations in each subunit) (Drosophila) (UniProt Q9VMQ7); assay: MST; Monolith X, 25 °C; eGFP-Elp456 (WT or mutated) constant at 50 nM, tubulin or Elp123 in twofold dilution series; binding buffer with 0.05% Tween-20
[2] = molecular target: B2; assay: as above
[3] = molecular target: microtubules assembled from porcine brain tubulin (pig, UniProt Q2XVP4 1-451, rhodamine, AMCA, HiLyte 647 or biotin on part of the tubulin, by experiment); assay: TIRF microscopy of decorated microtubules; GMPCPP-stabilized microtubules settled on passivated glass, proteins added one after the other in BRB80 imaging buffer; 100 nM 488-SNAP-Elongator or 488-SNAP-Elp123, 500 nM mScarlet-Elp456, 15 µM 647-GTP-Tubulin; details: both partners purified
[4] = molecular target: T1, Elp123 subcomplex (Drosophila Elp1, Elp2 and His6-PC-SNAP-Elp3) (Drosophila melanogaster, UniProt Q9VGK7 1-1252; Q7K4B3 1-794; Q9VQZ6 1-552, Alexa Fluor 488 on the SNAP tag); assay: MST; Monolith X, 25 °C; eGFP-Elp456 (WT or mutated) constant at 50 nM, tubulin or Elp123 in twofold dilution series; binding buffer with 0.05% Tween-20; details: both partners purified
T1 construct: Elp1, Drosophila melanogaster, codon-optimised synthetic gene, untagged; Elp2, Drosophila melanogaster, codon-optimised synthetic gene, untagged; Elp3, Drosophila melanogaster, codon-optimised synthetic gene; Elutes at about 600 kDa, a dimer of Elp1-Elp2-Elp3 protomers; source: Sf9, baculovirus (biGBac pBig1a), purified (Protein C resin, heparin, Superose 6); not shown: His6, N-terminal, kept; …
T1 sequence (Q9VGK7 whole entry, chain 1 of 3): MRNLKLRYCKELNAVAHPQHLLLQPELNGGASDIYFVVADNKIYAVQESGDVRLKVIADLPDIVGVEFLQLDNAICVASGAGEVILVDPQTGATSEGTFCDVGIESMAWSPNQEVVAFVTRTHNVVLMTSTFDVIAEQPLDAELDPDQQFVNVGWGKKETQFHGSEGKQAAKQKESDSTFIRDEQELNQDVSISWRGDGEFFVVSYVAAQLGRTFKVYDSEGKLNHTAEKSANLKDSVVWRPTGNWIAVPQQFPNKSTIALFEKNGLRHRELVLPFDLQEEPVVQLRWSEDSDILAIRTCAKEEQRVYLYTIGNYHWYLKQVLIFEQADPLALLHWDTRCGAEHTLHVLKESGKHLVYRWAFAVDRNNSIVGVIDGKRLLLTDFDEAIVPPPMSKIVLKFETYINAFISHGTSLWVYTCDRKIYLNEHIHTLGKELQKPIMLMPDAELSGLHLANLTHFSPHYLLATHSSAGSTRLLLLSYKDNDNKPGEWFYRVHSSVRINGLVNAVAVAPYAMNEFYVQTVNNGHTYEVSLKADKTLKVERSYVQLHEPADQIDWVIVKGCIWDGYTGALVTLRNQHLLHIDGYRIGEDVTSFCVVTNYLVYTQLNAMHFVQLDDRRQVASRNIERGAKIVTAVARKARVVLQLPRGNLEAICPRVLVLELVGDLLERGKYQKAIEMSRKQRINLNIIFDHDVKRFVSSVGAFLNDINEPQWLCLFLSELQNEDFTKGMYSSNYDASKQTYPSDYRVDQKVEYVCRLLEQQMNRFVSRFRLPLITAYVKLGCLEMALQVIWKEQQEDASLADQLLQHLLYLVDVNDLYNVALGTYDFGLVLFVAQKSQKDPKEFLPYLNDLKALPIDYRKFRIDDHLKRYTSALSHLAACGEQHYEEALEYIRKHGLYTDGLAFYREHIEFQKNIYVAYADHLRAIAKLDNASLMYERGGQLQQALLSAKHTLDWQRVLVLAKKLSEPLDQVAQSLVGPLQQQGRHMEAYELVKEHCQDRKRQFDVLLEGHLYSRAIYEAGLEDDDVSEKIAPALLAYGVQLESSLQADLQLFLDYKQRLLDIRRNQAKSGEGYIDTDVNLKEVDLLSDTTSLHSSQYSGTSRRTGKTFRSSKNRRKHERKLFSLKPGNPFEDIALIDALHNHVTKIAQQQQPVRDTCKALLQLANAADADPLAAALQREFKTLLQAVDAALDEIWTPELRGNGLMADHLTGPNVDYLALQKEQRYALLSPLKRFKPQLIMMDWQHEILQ
T1 sequence (Q7K4B3 whole entry, chain 2 of 3): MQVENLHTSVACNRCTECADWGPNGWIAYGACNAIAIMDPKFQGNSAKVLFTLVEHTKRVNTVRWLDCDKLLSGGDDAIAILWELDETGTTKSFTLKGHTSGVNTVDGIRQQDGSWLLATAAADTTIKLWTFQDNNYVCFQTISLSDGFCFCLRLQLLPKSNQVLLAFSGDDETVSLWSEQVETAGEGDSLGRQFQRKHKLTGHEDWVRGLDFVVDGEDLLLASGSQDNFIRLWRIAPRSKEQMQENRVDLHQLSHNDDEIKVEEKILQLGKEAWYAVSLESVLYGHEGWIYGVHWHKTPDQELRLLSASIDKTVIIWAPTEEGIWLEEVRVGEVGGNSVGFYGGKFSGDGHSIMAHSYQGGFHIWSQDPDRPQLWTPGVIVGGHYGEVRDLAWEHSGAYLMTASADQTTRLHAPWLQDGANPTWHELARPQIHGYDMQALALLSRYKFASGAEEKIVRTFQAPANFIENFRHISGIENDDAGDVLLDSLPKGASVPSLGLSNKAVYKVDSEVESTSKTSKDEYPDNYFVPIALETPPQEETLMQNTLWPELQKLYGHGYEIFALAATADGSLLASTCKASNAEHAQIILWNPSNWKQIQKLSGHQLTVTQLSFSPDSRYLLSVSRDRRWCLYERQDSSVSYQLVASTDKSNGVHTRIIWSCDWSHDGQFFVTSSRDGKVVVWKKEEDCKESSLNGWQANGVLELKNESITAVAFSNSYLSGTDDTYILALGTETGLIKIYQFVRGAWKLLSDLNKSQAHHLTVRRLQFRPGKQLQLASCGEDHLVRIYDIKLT
T1 sequence (Q9VQZ6 whole entry, chain 3 of 3): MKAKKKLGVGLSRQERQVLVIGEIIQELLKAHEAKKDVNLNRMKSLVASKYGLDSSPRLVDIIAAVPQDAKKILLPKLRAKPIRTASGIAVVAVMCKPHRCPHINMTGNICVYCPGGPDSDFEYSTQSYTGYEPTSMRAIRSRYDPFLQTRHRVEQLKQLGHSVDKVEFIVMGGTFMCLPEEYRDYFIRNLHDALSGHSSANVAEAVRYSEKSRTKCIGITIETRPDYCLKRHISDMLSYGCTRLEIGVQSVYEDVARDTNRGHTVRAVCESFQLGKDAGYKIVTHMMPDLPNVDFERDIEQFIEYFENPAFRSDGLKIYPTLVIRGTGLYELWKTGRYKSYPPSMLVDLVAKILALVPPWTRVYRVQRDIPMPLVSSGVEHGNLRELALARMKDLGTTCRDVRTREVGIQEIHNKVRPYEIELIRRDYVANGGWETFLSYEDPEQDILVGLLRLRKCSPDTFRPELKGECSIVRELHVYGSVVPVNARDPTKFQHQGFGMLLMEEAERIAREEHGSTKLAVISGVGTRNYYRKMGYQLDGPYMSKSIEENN

[5] = molecular target: B2; assay: MST; as a11, with 100 µM tRNA (and 2.5 mM MgATP by the legend) in the buffer of both partners; details: both partners purified

## Elp123 subcomplex (Drosophila Elp1, Elp2 and His6-PC-SNAP-Elp3) (from UniProt Q9VGK7 1-1252; Q7K4B3 1-794; Q9VQZ6 1-552)
[1]
  Kd: 67.1 nM

## pig brain tubulin (free GTP-αβ-tubulin heterodimers) (from UniProt Q2XVP4 1-451; P02554 1-445) (complex)
[2]
  Kd: 1.8 µM

## tubulin purified from HeLa S3 cells (from UniProt P68363 1-451; P07437 1-444) (complex)
[2]
  Kd: 21.2 µM

## de-tyrosinated HeLa S3 tubulin (treated with carboxypeptidase A) (from UniProt P68363 1-451; P07437 1-444) (complex)
[2]
  Kd: > 22 µM

## tubulin purified from TTLL1/7-double KO mouse brain (lacking polyglutamylation) (from UniProt P68369 1-451; Q7TMM9 1-445) (complex)
[2]
  Kd: > 25 µM

B1: mScarlet-Elp456 (Drosophila) (complex)
chain 1: MTSFRKRTVQKPIRGTRTSPHTAQVITSSGNPYLDVVIGGGLPMGSICLIEEDRFMTHAKVLAKYFLAEGVISKQEIFLGSLDDIPAEMLRRLPRPLTDQESMEQSEVQALGDAGAENGLRIAWRYNDLPLVNSEHATAKIGHHFNLMEQMDSMMLYNVKTTLWDDSPKHLDIVIDEEFSKSSSPTTPSLEQQPVEDAPPIPGTETAPQEKMPAQEEENSANNNNNNNNNSSSVTSSTKTGSQDSPLQVFHNPRYKGLLNDIQQLLRNESFVAGTKNNLCRVCLTSLGSPLWYDEHFGEDLIKFLTLLMASVRNCNSVCLITMPMHLIAKYDASLVPKIRQLVDYAIELESFAGSERETHPAFKEYSGLLHLHKMSAINTLAVHMPETPDLAFKLRRKKFIIEKFHLPPELQESSAKPDNCISGLLSNSNATASLDF
chain 2: MLSNLVVTKQKVVLVIDELNRERIAPKFIGSLLHEQGQGADTIKALPTGVSLKHVATFEALIDKYANNNTGSTTDSNSTGFNVILPTLADLLCYQTPAFIFGFLNRLRRSDNVRRVFLWASPQHLQDPHADYILAGCEYLAELVLRLESDKLLSLISRKPGGGVSNRRYSCEVSKTQFKVTPLDGGLPAGASPKQPSPEAEQTTEPASSTFKIELDEDEVLARNALTLPYERTSEPSEGNIIYTPDADDDFDEEDPDEDLCI
chain 3: MATSVLLACGLNEQKLPGFVHISEESNVDASFLISCVLGQRLRISNAGTLLVCLQHHYQHYFNAGMRLGYNTNIFQGKTLGVIDVLSDMAGEGLASKWLTNTEGQTLTDQLVEDIRAQVERNYASRNSYTVLIDNLSILFNLGASKLQVQQFCQDLAALGKEREKLTVITKLSNSDIYQLTDNNVAKLGQVRIQVLRLKSGVFREVDGKLLIERVLDEGNYACEETRKEVLYKVNDRNVKVFAPGEIGVKV
notes: Elp4, Drosophila melanogaster; Elp5, Drosophila melanogaster; ORF; Elp6, Drosophila melanogaster; put on Elp4 here by the name only (surmised); source: E. coli BL21 (DE3) Rosetta2, purified (Glutathione Sepharose, TEV elution, Superdex 200); not shown: GST, N-terminal, cleaved; copies: 2 + 2 + 2
[3]
  fold less fluorescence intensity on microtubules without Elp123 than with it: 9.3 fold

## B2
[4]
  Kd: 15.5 ± 3.7 nM

B3: recombinant Drosophila α1β1-tubulin heterodimers (His6-PC-tubulin α1 84B with co-purified tubulin β1 56D) (complex)
chain 1: MRECISIHVGQAGVQIGNACWELYCLEHGIQPDGQMPSDKTVGGGDDSFNTFFSETGAGKHVPRAVFVDLEPTVVDEVRTGTYRQLFHPEQLITGKEDAANNYARGHYTIGKEIVDLVLDRIRKLADQCTGLQGFLIFHSFGGGTGSGFTSLLMERLSVDYGKKSKLEFAIYPAPQVSTAVVEPYNSILTTHTTLEHSDCAFMVDNEAIYDICRRNLDIERPTYTNLNRLIGQIVSSITASLRFDGALNVDLTEFQTNLVPYPRIHFPLVTYAPVISAEKAYHEQLSVAEITNACFEPANQMVKCDPRHGKYMACCMLYRGDVVPKDVNAAIATIKTKRTIQFVDWCPTGFKVGINYQPPTVVPGGDLAKVQRAVCMLSNTTAIAEAWARLDHKFDLMYAKRAFVHWYVGEGMEEGEFSEAREDLAALEKDYEEVGMDSGDGEGEGAEEY
chain 2: MREIVHIQAGQCGNQIGAKFWEIISDEHGIDATGAYHGDSDLQLERINVYYNEASGGKYVPRAVLVDLEPGTMDSVRSGPFGQIFRPDNFVFGQSGAGNNWAKGHYTEGAELVDSVLDVVRKEAESCDCLQGFQLTHSLGGGTGSGMGTLLISKIREEYPDRIMNTYSVVPSPKVSDTVVEPYNATLSVHQLVENTDETYCIDNEALYDICFRTLKLTTPTYGDLNHLVSLTMSGVTTCLRFPGQLNADLRKLAVNMVPFPRLHFFMPGFAPLTSRGSQQYRALTVPELTQQMFDAKNMMAACDPRHGRYLTVAAIFRGRMSMKEVDEQMLNIQNKNSSYFVEWIPNNVKTAVCDIPPRGLKMSATFIGNSTAIQELFKRISEQFTAMFRRKAFLHWYTGEGMDEMEFTEAESNMNDLVSEYQQYQEATADEDAEFEEEQEAEVDEN
modifications: the paper calls this tubulin highly modified (polyglutamylated, acetylated and partially detyrosinated)
notes: tubulin α1 84B, Drosophila melanogaster, codon-optimised gene; tubulin β1 56D, Drosophila melanogaster, endogenous, co-purified with the tagged α chain; also called recombinant Drosophila tubulin; PC-α-Tubulin; source: D.mel-2 (S2) cells stably transfected (pMT Puro), purified (Protein C resin, Superdex 200); also in S2 cell lysate; not shown: His6, N-terminal, kept; PC, N-terminal, kept
[1]
  Kd: 1600 nM
[5]
  Kd: 2900 nM
[2]; both partners purified
  Kd: 1.2 µM
